According to patent US20240093191A1, “COMPOSITIONS AND METHODS FOR TREATING DISEASE ASSOCIATED WITH DUX4 OVEREXPRESSION” (RESEARCH INSTITUTE AT NATIONWIDE CHILDREN'S HOSPITAL, priority 2021, published 2024):

How the values were obtained:
[1] = system: DUX4 protein; experiment: Western blot of V5-tagged DUX4 protein in co-transfected HEK293 cells; assay type: cell-based, human; details: for reduction of DUX4 protein levels compared to U6.miGFP: DUX4:mi405 molar ratio 2 to 1; for reduction of DUX4 protein levels compared to U6.miGFP / reduction of DUX4 protein levels compared to U6.mi405F / reduction of DUX4 protein levels relative to U6.mi405 / Average inhibition efficiency (%) of DUX4 protein levels / reduction of DUX4 protein levels: HEK293; for reduction of DUX4 protein levels compared to U6.mi405F / reduction of DUX4 protein levels relative to U6.mi405: molar ratio 12 to 1, N=4; for Average inhibition efficiency (%) of DUX4 protein levels: CMV.DUX4-FL/CMV.eGFP, molar ratio 1 to 3, eGFP normalizer, relative to U6-milacZ, N = 3-8; for effect on DUX4 protein level (DUX4-FL WT): FIG. 18, HEK293 western blot
[2] = system: mi405 mature sequence; experiment: QPCR of mature mi405 (standard TaqMan cDNA synthesis) in HEK293 cells; assay type: cell-based, human; details: 24 h after transfection
Procedure: TaqMan Gene Expression Assay. QRT-PCR was carried out to quantify the expression of pri-mir-675, mir-675-5p and mi405 using TaqMan probes (ThermoFisher Scientific). Experiments were started by eliminating genomic DNA from the RNA preparations, and then cDNA was generated using the High-Capacity cDNA Reverse Transcription Kit (Applied Biosystems) following manufacturer's instructions. Within the same cDNA reaction, 1×RT random hexamer primers were used to generate the cDNA for RPL13A, used as a reference gene, and for pri-mir-675. To generate the cDNA for mir-675, the RT mir-675 reverse primer provided by ThermoFisher Scientific was used. For mi405, the mi405 qPCR protocol was done as it was previously described [Wallace et al., Mol. Ther. Methods Clin. Dev. 8: 121-30 (2018)]. To quantify mir-675 and mi405 levels, RNA was extracted using the total RNA protocol for the mirVana miRNA Isolation Kit (Ambion) from HEK293 cells. cDNA was generated using the High-Capacity cDNA Reverse Transcription Kit (Applied Biosystems) using a mix of random hexamer primers and specific reverse primer for pri-mir-675 and mir-675-5p. For mi405, 200 nM of the stem-loop forming primer (5′-[…]-3′) (SEQ ID NO: 144) was also used for the RT step. A custom TaqMan assay (Applied Biosystems) including 1.5 μM of Forward primer (5′-[…]-3′) (SEQ ID NO: 145), 0.7 μM of Reverse primer (5′-GTGCAGGGTCCGAGGT-3′) (SEQ ID NO: 146), and 0.2 μM of mi405 probe (5′-6FAM-ATACGACGTCCAGGAT-3′) (SEQ ID NO: 147) was then run using the CFX Connect Real Time system apparatus (Bio-Rad). RPL13A (Mm02526700_g1; Applied Biosystems) served as the reference gene. The TaqMan gene expression assay consisted of using the TaqMan Gene Expression Master mix and TaqMan probes purchased from ThermoFisher Scientific. 1× of probe was mixed with 1× of the TaqMan Gene Expression Master mix (ThermoFisher Scientific), and with 20 ng of cDNA. The mir-675- and mi405-specific primers and probes were designed to quantify only the mir-675-5p and mi405 mature sequence (see TaqMan Gene Expression Master mix protocol).
Apart from the effect on the inhibition efficiency of mi405, the effect of the flanking sequences on the expression of the miRNA also was tested. Therefore, the expression of the processed mature mi405 sequences was quantified using the standard and advanced TaqMan cDNA synthesis reaction. In the former reaction, a reverse primer detects the mature mi405 sequence following a stem-loop primer-based small RNA detection principle (ThermoFisher Scientific) (Jung et al., RNA (2013) 19: 1-10). The amplification and quantification steps were then performed using a standard TaqMan probe specific to mi405 that base pairs at the junction between the mi405 mature sequence and the reverse primer sequence (FIG. 6A). […] In the TaqMan advanced cDNA synthesis reaction, the mature sequence is extended through ligation of an adaptor sequence at the 5′ end and through the enzymatic addition of a polyA tail at the 3′ end of the mature mi405 sequence. The amplification and quantification steps were then performed using a TaqMan advanced probe specific to mi405 that normally base pairs with the 3′ end of the mature miRNA and with part of the adaptor sequence. Here, an additional TaqMan advanced probe (embedded probe) that only base pairs with the mature sequence of mi405 (FIG. 6B) was used. As a result, following TaqMan advanced cDNA synthesis reaction, droplet digital PCR (ddPCR) was performed to quantify mi405, mi405F, mi405B, mi405C, mi405G and mi405H expression levels. For this, TaqMan advanced embedded and overlapped mi405 probes (FIG. 6B) were used.

B1: U6.mi405H: mi405 construct with altered flanking sequences (nucleic acid)
DNA: ACGCCGCCATCTCTAGGCCCGCGCCGGCCCCCTCGCACAGACTTGTGGGAGAAGCTCGGCTACTCCCCTGCCCCGGTTAATTTGCATATAATATTTCCTAGTAACTATAGAGGCTTAATGTGCGATAAAAGACAGATAATCTGTTCTTTTTAATACTAGCTACATTTTACATGATAGGCTTGGATTTCTATAAGAGATACAAATACTAAATTATTATTTTAAAAAACAGCACAAAAGGAAACTCACCCTAACTGTAAAGTAATTGTGTGTTTTGAGACTATAAATATCCCTTGGAGAAAAGCCTTGTTTGACCGTTTAAACTCGAGTGAGCGATCCAGGATTCAGATCTGGTTTCTGTAAAGCCACAGATGGGAAACCAGATCTGAATCCTGGACTGCCTACTAGAGCGCACGCCAGTTTTTT
reduction of DUX4 protein levels compared to U6.miGFP ([1]; 24 h): 79±6%
reduction of DUX4 protein levels compared to U6.mi405F ([1]; 24 h): 33±14%
reduction of DUX4 protein levels relative to U6.mi405 ([1]; 24 h): 60±8%
levels of mature mi405 sequence compared to U6.mi405 [2]: greater or higher with the difference not being statistically significant

B2: H1.mir-675: commercially available H1 promoter mir-675 expression plasmid (SBI Biosciences) (nucleic acid)
DNA: GAACGCTGACGTCATCAACCCGCTCCAAGGAATCGCGGGCCCAGTGTCACTAGGCGGGAACACCCAGCGCGCGTGCGCCCTGGCAGGAAGATGGCTGTGAGGGACAGGGGAGTGGCGCCCTGCAATATTTGCATGTCGCTATGTGTTCTGGGAAATCACCATAAACGTGAAATGTCTTTGGATTTGGGAATCTTATAAGTTCTGTATGAGACCACCCCCCAGGGTCTGGTGCGGAGAGGGCCCACAGTGGACTTGGTGACGCTGTATGCCCTCACCGCTCAGCCCCTGGGGAATTCTTCGATTCTGCTTTTTT
Average inhibition efficiency (%) of DUX4 protein levels [1]: 68 ± 5 (N = 4) %
effect on DUX4 protein level (DUX4-FL WT) [1]: reduce DUX4 protein level

B3: U6.mir-675: U6 promoter-driven mir-675 expression plasmid with 40 nt 5' and 47 nt 3' flanking sequences (nucleic acid)
DNA: GACGCCGCCATCTCTAGGCCCGCGCCGGCCCCCTCGCACAGACTTGTGGGAGAAGCTCGGCTACTCCCCTGCCCCGGTTAATTTGCATATAATATTTCCTAGTAACTATAGAGGCTTAATGTGCGATAAAAGACAGATAATCTGTTCTTTTTAATACTAGCTACATTTTACATGATAGGCTTGGATTTCTATAAGAGATACAAATACTAAATTATTATTTTAAAAAACAGCACAAAAGGAAACTCACCCTAACTGTAAAGTAATTGTGTGTTTTGAGACTATAAATATCCCTTGGAGAAAAGCCTTGTTTGCGTTTAGTGAACCGTCAGATGGTACCGTTTAAACTCGAGCCCAGGGTCTGGTGCGGAGAGGGCCCACAGTGGACTTGGTGACGCTGTATGCCCTCACCGCTCAGCCCCTGGGACTAGAGCGGCCGCCACAGCGGGGAGATCCAGACATGATAAGATACATTTTTT
reduction of DUX4 protein levels ([1]; AAV.CMV.DUX4-FL co-transfection, 24 h, β-actin normalizer, relative to U6.milacZ): 46±11%
Average inhibition efficiency (%) of DUX4 protein levels [1]: 43±4%
effect on DUX4 protein level (DUX4-FL WT) [1]: reduce DUX4 protein level

B4: U6.mi405G: mi405 construct with altered flanking sequences (nucleic acid)
DNA: ACGCCGCCATCTCTAGGCCCGCGCCGGCCCCCTCGCACAGACTTGTGGGAGAAGCTCGGCTACTCCCCTGCCCCGGTTAATTTGCATATAATATTTCCTAGTAACTATAGAGGCTTAATGTGCGATAAAAGACAGATAATCTGTTCTTTTTAATACTAGCTACATTTTACATGATAGGCTTGGATTTCTATAAGAGATACAAATACTAAATTATTATTTTAAAAAACAGCACAAAAGGAAACTCACCCTAACTGTAAAGTAATTGTGTGTTTTGAGACTATAAATATCCCTTGGAGAAAAGCCTTGTTTGACCGTTTAAACTCGAGTGAGCGATCCAGGATTCAGATCTGGTTTCTGTAAAGCCACAGATGGGAAACCAGATCTGAATCCTGGACTGCCTACTAGAGAATTCTTCGATTCTGCTTTTTT
reduction of DUX4 protein levels compared to U6.miGFP ([1]; 24 h): 88±2%
reduction of DUX4 protein levels compared to U6.mi405F ([1]; 24 h): 52±9%
reduction of DUX4 protein levels relative to U6.mi405 ([1]; 24 h): 71±5%
levels of mature mi405 sequence compared to U6.mi405 [2]: greater or higher with the difference not being statistically significant

B5: U6.mi405F: mi405 with one G at 5' end and 16 mer 3' flanking sequence with single CNNC motif (nucleic acid)
DNA: ACGCCGCCATCTCTAGGCCCGCGCCGGCCCCCTCGCACAGACTTGTGGGAGAAGCTCGGCTACTCCCCTGCCCCGGTTAATTTGCATATAATATTTCCTAGTAACTATAGAGGCTTAATGTGCGATAAAAGACAGATAATCTGTTCTTTTTAATACTAGCTACATTTTACATGATAGGCTTGGATTTCTATAAGAGATACAAATACTAAATTATTATTTTAAAAAACAGCACAAAAGGAAACTCACCCTAACTGTAAAGTAATTGTGTGTTTTGAGACTATAAATATCCCTTGGAGAAAAGCCTTGTTTGCTCGAGTGAGCGATCCAGGATTCAGATCTGGTTTCTGTAAAGCCACAGATGGGAAACCAGATCTGAATCCTGGACTGCCTACTAGTAATTCTTCGATTCTGCTTTTTT
increase of inhibition efficiency compared to U6.mi405 (western blot) ([1]; 1:4 DUX4:mi405 molar ratio, 24 h): 20%
reduction of DUX4 protein levels ([1]; 1:4 DUX4:mi405 molar ratio, 24 h, normalized to miGFP, N=2): 99±1%
reduction of DUX4 protein levels compared to U6.miGFP ([1]; 24 h): 81±9%
reduction of DUX4 protein levels relative to U6.mi405 ([1]; 24 h): 40±5%
reduction of mature mi405 sequence expression relative to U6.mi405 ([2]; normalized to RPL13A): 85±5%
